Measurements taken from the nanobody polyreactivity screen of Harvey et al. (2022).

experiment: yeast display, Sf9 membrane polyspecificity reagent, FACS + sequencing; frameworks hold sequencing errors
How it was run: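 Synthetic nanobody libraries on Saccharomyces cerevisiae BJ5465 were galactose-induced for 36–48 hours, stained 1 hour at 4 °C with 10% biotinylated, detergent-solubilized Sf9 membrane reagent and enriched on streptavidin microbeads. FACS then separated cells into low and high (top ~1%) gates by anti-HA (expression) and streptavidin (reagent binding) fluorescence. Genes were colony-PCR amplified, MiSeq 2 × 250 sequenced and CDR-length filtered. A clone's polyreactivity label is that of its gate of origin.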

Sequence | polyreactivity (PSR sort gate)
QVQLVESGGGLDQAGGSLRLSCAASGLTFWYYAMGWYRQAPGKERELVVAISWSGGRTSYADSVKGRFTISRDNAKNTVYLQMNSLKPEDTAVYYCAADKDFRTGEYEYDYWGQGTQVTVSS | high polyreactivity
QVQLVESGGGLDQAGGSLRLSCAASGLTFYSYAMGWYRQAPGKERELVAAISSSGGNTYYADSVKGRFTISRDNAKNTVYLQMNSLKPEDTAVYYCAARYTAYIQYGMGYWGQGTQVTVSS | high polyreactivity
QVQLVESGGGLDQAGGSLRLSCAASGNIFYRYAMGWYRQAPWKERELVAAISGNSGNTYYADSVKGRFTISRDNAKNTVYLQMNSLKPEDTAVYYCAAERRAFGHYSWGQGTQVTVSS | high polyreactivity
QVQLVESGGGLDQAGGSLRLSCAASGRIFDSNAMGWYRQAPGKERELVAAISYDGGSTYYADSVKGRFTISRDNAKNTVYLQMNSLKPEDTAVYYCAGDDGWYYYYGYDYWGQGTQVTVSS | low polyreactivity
QVQLVESGGGLDQAGGSLRLSCAASGRIFGYYVMGWYRQAPGKEREFVAAISRSGGSTYYADSVKGRFTISRDNAKTTVYLQMNSLKPEDTAVYYCAKRVSTYGFSGYDYWGQGTQVTVSS | high polyreactivity
QVQLVESGGGLDQAGGSLRLSCAASGRIFLVYVMGWYRQAPGKERELVAAISASDGSTYYADSVKGRFTISRDNANNTVYLQMNSLKPEDTAVDYCAEWGYSLDSNSYRELNYWGQGTQVNVSS | low polyreactivity
QVQLVESGGGLDQAGGSLRLSCAASGRIFSRYTMGWYRQAPGKERELVAAISSGGGSNYADSVKGRFTISRDNAKNSVYLQMTSLNPEDTEVYYCNARSWLSRGYGYWGQGTQVTVSS | high polyreactivity
QVQLVESGGGLDQAGGSLRLSCAASGRIIYWYAMGWFRQAPGKERELVAAINNGGGTNYADSVKGRFTISRDNAKHTVYLQMNSLKPEDTAVYYCAADYVFYSRFFTEVYWGQGTQVTVSS | low polyreactivity
QVQLVESGGGLDQAGGSLRLSCAASGRILGYNALGWYRQAPGKERELVAAIRTGTTNYADSVKGRFTISRDNAKNTVYLQMNSLKPEDTAVYYCAALRPYNEGSSHLFRYDYWGQGTQVTVSS | low polyreactivity
QVQLVESGGGLDQAGGSLRLSCAASGRIVVGYAMGWYRQAPGKERELVAAINRSGSSTYYADSVKGRFTISRDNGKITVYLQMNSLKPEDTAVYYCNARSGNRYGPRYDYWGQGTQVTVSS | high polyreactivity
QVQLVESGGGLDQAGGSLRLSCAASGRTFFYNAMGWYRQAPGKESEWDAAISYSGGSTYYADSVKGRFTISRDNAKNTVYLQMNSLKPEDTAVYYCAARDKTRSVRRTGMDYWGQGTQVTVSS | high polyreactivity
QVQLVESGGGLDQAGGSLRLSCAASGRTFGWYAMGWYRQAPGTERELVAVISSSGGRTYYADSVKGRFTISRDNAKNTVYLQLNSLKPEDTAVYYCATPNGSKRYSYYYWGQGTQVTVSS | high polyreactivity
QVQLVESGGGLDQAGGSLRLSCAASGRTFRNYVMGWYRQAPGKERELVAAISRSGGSTYYADSVKGRFTISRDNAKNSVYLQMNSLKPEDTAVYYCNTVTTYDVEYWGQGTQVTVSS | high polyreactivity
QVQLVESGGGLDQAGGSLRLSCAASGRTFSWYAMGWYRQAPGKERELVAAITYSGGNTYYAHSVKGRFTISRDNAKITVYLLRNSLKPDDNAVYYCAAPSLIAKYEYWGQGTQVTVSS | high polyreactivity
QVQLVESGGGLDQAGGSLRLSCAASGSIFAYAMPLYRQAPGKERELVASISTSTDITYADSVKGRFTISRDNAMNSVYFLMNSLKPEDTAVYYCAATYWQWWGWYDYWGEGTQVTVSS | high polyreactivity
QVQLVESGGGLDQAGGSLRLSCAASGSIFGNNAMGWYRQAPGKERELVASISSSSGSTNYADSVKGRFTISRDNAKNTVYVQMNSLKPEDTAVYYCAARWRYWSRKYDYWGQGTQVTVSS | high polyreactivity

Sequence | polyreactivity (PSR sort gate)
QVQLVESGGGLDQAGGSLRLSCAASGSIFSTYAMGWYRQAPGKERELVAAISRNGGSTSYADSVKGRFTISRDNAKNTVYLQMNILKPEDTAVYYCNAGVYWPGEFDYWGQGTQVTVSS | high polyreactivity
QVQLVESGGGLDQAGGSLRLSCAASGSIFTQYAMGWYRQAPGKERELVAAITSGGSTYADSVKGRFTISRDNAKNTVYLQMNSLKPEDTAVYYCATPYSYRGVTFNYWGQGTLVTVSS | low polyreactivity
QVQLVESGGGLDQAGGSLRLSCAASGSIFWSYDRGWYRQAPGKETELVATITSGDSTYYADSVKGRFTISRDNEKNTVYLPMKSLKPEDTAVYYCAAGTFYRPTYCHREYDYWGQGTQVTVSS | low polyreactivity
QVQLVESGGGLDQAGGSLRLSCAASGSIFWYNTMGWYRQAPGKERELVAAITFSGGSTYYADSVKGRFTISRDNAKNTVYLQMNSLKPEDTAVYYCAAVFYSAVGYFYWGQGTQVTVSS | low polyreactivity
QVQLVESGGGLDQAGGSLRLSCAASGSISAIYTMGWYRQAPGKERELVAAISSGDSTNYADSVKGRFTISRDNAKNTVYLQMNSLKPEDTAVYYCATERSHLATGQGYYYVQTFYYWGQGTEVTVSS | low polyreactivity
QVQLVESGGGLDQAGGSLRLSCAASGSIYWNNAMGWYRQAPRKERELDAAISKSGTRTYYADSVKGRFTISRDNAKNTVYLQMNSLKPEDTAVYYCNALLSDSGTYAGDDYWGQGTQVTVSS | high polyreactivity
QVQLVESGGGLDQAGGSLRLSCAASGSTFFKYAMGWYRQAPAKERELVAAISQNGGSTYYADSVKGRFTISRDNAKNTVYFQMNSLNPEDTAVYYCATGPNSYDYWGQGNQVTVSS | high polyreactivity
QVQLVESGGGLDQAGGSLRLSCAASGSTFTRNAMRWYRQAPGKERELVATISSGGSTNYADSVKGRFTISRDNAKNTVYLQMNSLKPEDTAVYYCAKRSLYSYYYWGQGTQVTVSS | high polyreactivity
QVQLVESGGGLDQAGGSLRLSCAASGSTFYYNAMGWYRQAPGKERELVAAISSDGSTNYADSVKGRFTISRDNAKNTVYLQMNSLKPEDTAVYYCAKKDFYFAPSPGYYRSRDYWGQGTQVTVSS | low polyreactivity
QVQLVESGGGLDQAGGSLRLSCAASGTTFRNNAMGWYRQAPGKERELVAVITGDGGSTYYADSVKGRFTISRDNAKNTVYLEMNSLKPEDTAVYYCNARSIRYSRFRQRFGYWGQGTQVTVSS | low polyreactivity
QVQLVESGGGLDQAGGSLRLSCAASGVNAMGWYRQAPGKEREFVAAITSIGGSTYYADSVKGRFTISRDNAKNTVYLQMNRLKPEDTAVYYCNPDSGPVKVSPLYESWGQGTQVTVSS | low polyreactivity
QVQLVESGGGLDQAGGSLRLSCAASRSTFPHYAMGWYRQAPGKERELVAAIYSTGGSTYYADSVKGRFTISRDNAKNTVYLQMNSLKPEDTAVYYCAASRLYWGQGNQVTVSS | high polyreactivity
QVQLVESGGGLDQAGGSLRLSCAGSGSIFTSYAMGWDIQAPGKERELVAAISQSGGDTYYADSVKGRFTISRDNAKNTVYLQMNSLKPEDTAVYYCAASVWYYPMDYWGQGTQVTVSS | low polyreactivity
QVQLVESGGGLDQAGGSLRLSGAASGRILWYNAMGWYRQAPGKERELVAAISWTGGSTYYADSVKGRFTISRDNAKNTVYLQMNSLKPEDTAVYYCNVDTPYTQGFDQRQGYTFDYWGQGTQVTVSS | low polyreactivity
QVQLVESGGGLDQAGGSLRLSGAASGSIFDNAMGWYSQAPGKERELVAAITSGGITNYADSVKGRFTISRDNAKNTVYLQMNSLKPEDTAVYYCNTLSPTQTKYDYWGQGTQVTVSS | low polyreactivity
QVQLVESGGGLDQAGGSLRLSSAASGRTFYYYAMGWYRKAPGKERELVAAITRSGGSTYYADSVKGRFTISRDNAKNTFYLQMNSLKPEDTAVYYCAVQVRPNSGGTRIHRGGYDYWGQGTQVTVSS | low polyreactivity
